From patent US20220185896A1 (NEW YORK UNIVERSITY, published 2022)

B1: G9.2-17 mIgG1 (mouse IgG1 version of G9.2-17) (antibody, V domains shown)
VH: EVQLVESGGGLVQPGGSLRLSCAASGFTVSSSSIHWVRQAPGKGLEWVAYISSSSGYTYYADSVKGRFTISADTSKNTAYLQMNSLRAEDTAVYYCARYWSYPSWWPYRGMDYWGQGTLVTVSS
VL: DIQMTQSPSSLSASVGDRVTITCRASQSVSSAVAWYQQKPGKAPKLLIYSASSLYSGVPSRFSGSRSGTDFTLTISSLQPEDFATYYCQQSSTDPITFGQGTKVEIKR
notes: Mouse IgG1 backbone; also called mIgG1 G9.2-17; G9.2-17 IgG1 mouse mAb
B2: anti-Galectin-9 antibody G9.2-17 (IgG4) (antibody, V domains shown)
VH: B1 VH
VL: B1 VL
notes: also called G9.2-17 (Ig4); G9.2-17 hIgG4 Fab Arm Exchange mut

Assays:
[1] = target: T1, human galectin-9 CRD2 domain (human, UniProt O00182 227-355, limits assumed); assay: bead based binding
T1 construct: domain: CRD2; also called CRD2 domain of galectin-9
T1 sequence (O00182 227-355 limits assumed): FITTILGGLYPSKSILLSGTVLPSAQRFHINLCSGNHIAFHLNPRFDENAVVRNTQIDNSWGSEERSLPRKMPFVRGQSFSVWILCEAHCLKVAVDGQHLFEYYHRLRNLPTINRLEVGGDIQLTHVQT

[2] = target: T2, mouse galectin-9 CRD2 domain (mouse, UniProt O08573 225-353, limits assumed); assay: bead based binding
T2 construct: domain: CRD2; also called mouse CRD2 domain
T2 sequence (O08573 225-353 limits assumed): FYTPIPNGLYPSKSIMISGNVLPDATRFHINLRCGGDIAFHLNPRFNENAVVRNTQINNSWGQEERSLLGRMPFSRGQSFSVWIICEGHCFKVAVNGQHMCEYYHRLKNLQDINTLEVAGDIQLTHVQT

[3] = target: T3, rat galectin-9 CRD2 domain (rat, UniProt P97840 226-354, limits assumed); assay: bead based binding
T3 construct: domain: CRD2; also called rat CRD2 domain
T3 sequence (P97840 226-354 limits assumed): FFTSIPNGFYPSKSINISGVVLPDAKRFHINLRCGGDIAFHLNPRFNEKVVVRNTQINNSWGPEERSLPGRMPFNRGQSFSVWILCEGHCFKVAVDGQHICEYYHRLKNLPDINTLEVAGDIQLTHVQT

[4] = target: T4, cynomolgus galectin-9 CRD2 domain (cynomolgus monkey, UniProt A0A7N9IHL9 227-355); assay: bead based binding
T4 construct: domain: CRD2; also called cynomolgus CRD2 domain; CRD2 domain of cynomolgus monkey galectin-9

[5] = target: T2, mouse galectin-9 CRD2 domain; assay: SPR, One Step method on a Pioneer SPR
[6] = target: T1, human galectin-9 CRD2 domain; assay: ELISA, antibody titrated over immobilized Galectin-9 CRD2
[7] = target: T5, human galectin-9 CRD1 domain (human, UniProt O00182 15-148, limits assumed); assay: bead based binding to human galectin-9 CRD1 and CRD2 domains
T5 construct: domain: CRD1; also called CRD1 domain of galectin-9 protein
T5 sequence (O00182 15-148 limits assumed): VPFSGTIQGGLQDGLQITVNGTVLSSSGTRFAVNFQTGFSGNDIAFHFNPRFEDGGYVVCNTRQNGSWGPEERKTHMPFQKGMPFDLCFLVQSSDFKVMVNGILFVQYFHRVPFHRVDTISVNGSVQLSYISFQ

[8] = target: T6, human galectin-9 on the cell surface (CRL-2134 cell line; patient tumor-derived cells) (human, UniProt O00182 1-355); assay: cell based saturation curve, surface staining of CRL-2134 cells (fraction of positive cells)
T6 construct: whole, on cells
T6 sequence (O00182 whole entry): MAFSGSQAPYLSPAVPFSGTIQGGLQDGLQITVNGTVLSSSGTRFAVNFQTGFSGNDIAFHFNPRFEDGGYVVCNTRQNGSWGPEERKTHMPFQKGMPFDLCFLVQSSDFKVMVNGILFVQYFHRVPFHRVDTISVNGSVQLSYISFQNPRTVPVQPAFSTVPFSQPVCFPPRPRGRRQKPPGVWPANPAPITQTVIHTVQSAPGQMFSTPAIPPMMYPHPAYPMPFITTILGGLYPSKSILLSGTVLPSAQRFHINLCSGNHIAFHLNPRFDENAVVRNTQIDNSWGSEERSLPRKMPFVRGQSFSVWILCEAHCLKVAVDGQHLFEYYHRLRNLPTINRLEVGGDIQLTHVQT

Kd [1] [nM]	Kd [2] [nM]	Kd [3] [nM]	Kd [4] [nM]	Kd [5] [nM]	Kd [6] [nM]	binding result [7]	Kd [8] [nM]	Binder
0.18	0.3	0.35	0.3	3.05	0.45	no binding	2.9	B1
0.15	0.3	–	–	1.8	0.42	no binding	0.41	B2
